Measured values: paper PMC4243253 (Biochemical Journal, 2014)

Molecular target: the molecule itself
Assay: SEC

B1: Bacillus anthracis kynurenine formamidase KynB (enzyme)
chain: MKTSKWIDISQPLNNDIATWPGDTPFSYEVLWSKEESGSVNVGKLTMSIHTGTHIDAPFHFDNDGKKVLDLDIQVYVGPTRIIDVSNLESIGKKELEKFHLEGVERLLLRTSSHGKANEFPDIIPHLRADIAPFLSEKGIRLIGVDVPSVDPLDDKELAAHHQLFKHSIHILENVVLDHVADGDYELIALPLALSDADGSPVRAVIRPI
notes: also called BaKynB; KFase
With B1 the “stoichiometry N” value was 2.
